This passage reports binding result and Kd results from paper PMC11347159, “MUT-7 exoribonuclease activity and localization are mediated by an ancient domain” (Nucleic Acids Research, 2023).

Data set [1] deals with T1, MUT-7^FL/MUT-8^FL complex (Caenorhabditis elegans, UniProt P34607 1-910; Q19672 1-578).
T1 construct: C. elegans exonuclease MUT-7, residues 1-910 (full length); C. elegans MUT-8 (RDE-2), residues 1-578 (full length); Complex formed beforehand by co-expression; also called full-length MUT-7/MUT-8; MUT-7/MUT-8; source: E. coli BL21(DE3) derivative, co-expressed, purified through several chromatographic steps
T1 sequence (looked up) 1: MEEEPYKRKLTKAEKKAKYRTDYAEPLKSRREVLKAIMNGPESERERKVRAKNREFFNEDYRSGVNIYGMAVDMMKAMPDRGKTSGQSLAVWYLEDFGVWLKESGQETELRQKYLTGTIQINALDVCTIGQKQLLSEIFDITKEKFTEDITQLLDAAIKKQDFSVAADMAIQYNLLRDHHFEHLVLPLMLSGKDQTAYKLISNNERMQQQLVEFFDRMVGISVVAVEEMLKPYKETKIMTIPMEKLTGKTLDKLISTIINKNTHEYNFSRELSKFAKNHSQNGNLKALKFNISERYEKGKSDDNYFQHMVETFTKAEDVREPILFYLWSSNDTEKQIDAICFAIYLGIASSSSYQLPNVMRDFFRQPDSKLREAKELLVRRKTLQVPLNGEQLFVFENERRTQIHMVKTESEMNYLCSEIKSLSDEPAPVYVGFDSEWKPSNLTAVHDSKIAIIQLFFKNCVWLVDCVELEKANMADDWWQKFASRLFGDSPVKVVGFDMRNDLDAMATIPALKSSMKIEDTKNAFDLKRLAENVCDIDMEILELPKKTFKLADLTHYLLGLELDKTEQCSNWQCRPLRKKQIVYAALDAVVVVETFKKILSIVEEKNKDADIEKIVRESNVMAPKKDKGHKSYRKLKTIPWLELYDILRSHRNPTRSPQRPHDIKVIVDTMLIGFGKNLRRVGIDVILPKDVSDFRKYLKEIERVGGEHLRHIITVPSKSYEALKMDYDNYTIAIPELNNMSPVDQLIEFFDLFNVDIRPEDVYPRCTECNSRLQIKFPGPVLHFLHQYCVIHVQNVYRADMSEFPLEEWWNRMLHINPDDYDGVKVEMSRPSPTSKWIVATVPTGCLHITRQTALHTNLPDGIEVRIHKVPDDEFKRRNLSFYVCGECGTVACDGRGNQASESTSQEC
T1 sequence (looked up) 2: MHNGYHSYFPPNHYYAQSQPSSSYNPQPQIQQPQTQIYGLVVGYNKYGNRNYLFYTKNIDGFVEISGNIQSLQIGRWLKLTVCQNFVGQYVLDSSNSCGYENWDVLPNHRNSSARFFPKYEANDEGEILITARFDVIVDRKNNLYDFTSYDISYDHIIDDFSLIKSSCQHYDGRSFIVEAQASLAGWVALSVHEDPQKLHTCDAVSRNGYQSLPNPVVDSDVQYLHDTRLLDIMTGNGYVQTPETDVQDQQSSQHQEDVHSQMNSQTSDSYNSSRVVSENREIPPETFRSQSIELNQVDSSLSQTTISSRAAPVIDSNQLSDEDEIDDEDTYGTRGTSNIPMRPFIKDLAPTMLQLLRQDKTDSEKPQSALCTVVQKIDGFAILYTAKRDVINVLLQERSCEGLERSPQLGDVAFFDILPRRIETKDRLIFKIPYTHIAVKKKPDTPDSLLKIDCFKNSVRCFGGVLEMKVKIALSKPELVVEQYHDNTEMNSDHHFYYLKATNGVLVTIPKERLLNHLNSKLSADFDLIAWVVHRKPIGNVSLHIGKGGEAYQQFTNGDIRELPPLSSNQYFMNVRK
As to the kind of experiment: pull-down; purified proteins (5 μM) pre-incubated 30 min at 4°C in 20 mM HEPES/NaOH pH 7.5, 150 mM NaCl, 10% glycerol, 0.05% IGEPAL, 2 mM DTT; GST-tagged MUT-16 constructs held on glutathione resin; SDS-PAGE, Coomassie. Particulars: both partners purified.

The target of a further data set is T2, EXD3 NTD-EXO(D399A) (Homo sapiens, UniProt Q8N9H8 1-582, D399A).
T2 sequence: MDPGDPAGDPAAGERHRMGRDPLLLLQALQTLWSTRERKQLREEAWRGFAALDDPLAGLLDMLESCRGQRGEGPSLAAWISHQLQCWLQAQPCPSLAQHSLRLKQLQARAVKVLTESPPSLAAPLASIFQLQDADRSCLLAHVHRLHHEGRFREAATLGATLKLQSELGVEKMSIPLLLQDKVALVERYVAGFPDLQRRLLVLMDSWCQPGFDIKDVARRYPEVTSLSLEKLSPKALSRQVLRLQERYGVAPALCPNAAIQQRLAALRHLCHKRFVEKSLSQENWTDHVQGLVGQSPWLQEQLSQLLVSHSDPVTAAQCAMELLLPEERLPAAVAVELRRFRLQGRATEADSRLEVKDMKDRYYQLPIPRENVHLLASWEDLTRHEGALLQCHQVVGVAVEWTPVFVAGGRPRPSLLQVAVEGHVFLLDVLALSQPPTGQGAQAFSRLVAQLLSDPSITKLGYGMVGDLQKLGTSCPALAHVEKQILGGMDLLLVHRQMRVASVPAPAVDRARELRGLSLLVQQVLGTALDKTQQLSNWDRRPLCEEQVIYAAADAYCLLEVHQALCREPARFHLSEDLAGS
Briefly: fluorescence polarization; 250 mM NaCl; Hill h 1.1; FP, 50 nM RNA, 30 min, room temperature; C. elegans proteins: 20 mM HEPES/NaOH pH 7.5, 150 mM NaCl, 10% glycerol, 5 mM EDTA; human proteins: 20 mM HEPES/NaOH pH 7.5, 250 mM NaCl. Particulars: protein: recombinant; label: 5'-FAM; single strand. (Polarisation of emitted light reports the rotation of a fluorescent probe.)

The next data set addresses T3, EXD3 FL(D399A) (Homo sapiens, UniProt Q8N9H8 1-876, D399A).
T3 sequence: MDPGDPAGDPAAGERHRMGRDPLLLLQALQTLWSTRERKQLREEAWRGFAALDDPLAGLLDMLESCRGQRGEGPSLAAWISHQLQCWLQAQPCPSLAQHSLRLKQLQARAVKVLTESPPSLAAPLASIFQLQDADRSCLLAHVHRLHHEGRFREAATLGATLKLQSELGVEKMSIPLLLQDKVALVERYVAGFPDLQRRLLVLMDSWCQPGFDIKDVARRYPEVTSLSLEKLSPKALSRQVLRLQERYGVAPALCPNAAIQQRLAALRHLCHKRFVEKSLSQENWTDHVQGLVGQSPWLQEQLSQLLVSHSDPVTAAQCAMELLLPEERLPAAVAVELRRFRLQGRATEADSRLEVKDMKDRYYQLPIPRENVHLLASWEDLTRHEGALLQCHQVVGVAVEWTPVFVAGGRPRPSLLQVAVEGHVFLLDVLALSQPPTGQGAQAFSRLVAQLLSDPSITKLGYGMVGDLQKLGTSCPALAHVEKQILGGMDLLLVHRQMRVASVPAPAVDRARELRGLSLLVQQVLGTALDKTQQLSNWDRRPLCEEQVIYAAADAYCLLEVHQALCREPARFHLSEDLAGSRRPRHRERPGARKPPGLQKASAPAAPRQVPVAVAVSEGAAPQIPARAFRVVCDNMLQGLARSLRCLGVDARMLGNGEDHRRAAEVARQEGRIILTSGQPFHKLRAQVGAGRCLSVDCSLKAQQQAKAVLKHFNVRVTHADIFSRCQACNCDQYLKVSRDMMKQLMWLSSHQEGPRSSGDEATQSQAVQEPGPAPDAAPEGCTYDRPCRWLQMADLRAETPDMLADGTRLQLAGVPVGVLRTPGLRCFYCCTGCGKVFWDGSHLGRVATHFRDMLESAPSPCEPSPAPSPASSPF
As to the kind of experiment: fluorescence polarization; 250 mM NaCl; Hill h 1.029; FP, 50 nM RNA, 30 min, room temperature; C. elegans proteins: 20 mM HEPES/NaOH pH 7.5, 150 mM NaCl, 10% glycerol, 5 mM EDTA; human proteins: 20 mM HEPES/NaOH pH 7.5, 250 mM NaCl. The note with it: protein: recombinant; label: 5'-FAM; single strand.

In another data set the target is T4, MUT-7 FL (Caenorhabditis elegans, UniProt P34607 1-910).
T4 sequence: T1 sequence (looked up) 1
Briefly: fluorescence polarization; 5 mM EDTA, 150 mM NaCl; Hill h 1.195; FP, 50 nM RNA, 30 min, room temperature; C. elegans proteins: 20 mM HEPES/NaOH pH 7.5, 150 mM NaCl, 10% glycerol, 5 mM EDTA; human proteins: 20 mM HEPES/NaOH pH 7.5, 250 mM NaCl. Particulars: protein: recombinant; tags: His10-MBP-3C (N), 3C cleavage in purification; label: 5'-FAM; single strand.

The target of another data set is T5, MUT-7 NTD-EXO (Caenorhabditis elegans, UniProt P34607 1-625).
T5 sequence: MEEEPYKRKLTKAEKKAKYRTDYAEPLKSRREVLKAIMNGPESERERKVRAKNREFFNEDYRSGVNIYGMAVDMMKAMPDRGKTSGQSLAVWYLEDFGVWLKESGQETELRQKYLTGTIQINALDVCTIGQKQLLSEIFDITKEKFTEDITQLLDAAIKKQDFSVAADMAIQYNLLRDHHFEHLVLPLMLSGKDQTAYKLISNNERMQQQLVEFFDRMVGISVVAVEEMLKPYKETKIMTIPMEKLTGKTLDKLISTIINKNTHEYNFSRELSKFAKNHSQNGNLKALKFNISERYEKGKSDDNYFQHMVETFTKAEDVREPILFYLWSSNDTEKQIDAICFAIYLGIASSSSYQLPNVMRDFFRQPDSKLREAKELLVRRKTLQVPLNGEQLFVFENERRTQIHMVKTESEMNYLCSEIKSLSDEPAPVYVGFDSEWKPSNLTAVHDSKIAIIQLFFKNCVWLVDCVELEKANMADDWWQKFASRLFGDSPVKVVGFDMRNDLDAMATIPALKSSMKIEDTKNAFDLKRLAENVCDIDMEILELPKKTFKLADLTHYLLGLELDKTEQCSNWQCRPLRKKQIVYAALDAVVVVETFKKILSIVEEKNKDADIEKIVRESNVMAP
As to the kind of experiment: fluorescence polarization; 5 mM EDTA, 150 mM NaCl; Hill h 1.491; FP, 50 nM RNA, 30 min, room temperature; C. elegans proteins: 20 mM HEPES/NaOH pH 7.5, 150 mM NaCl, 10% glycerol, 5 mM EDTA; human proteins: 20 mM HEPES/NaOH pH 7.5, 250 mM NaCl. The note with it: protein: recombinant; label: 5'-FAM; single strand.

Data set [2] addresses T6, MUT-8^NTD (1–235), purified (Caenorhabditis elegans, UniProt Q19672 1-235).
T6 construct: C. elegans MUT-8 N-terminal domain, residues 1-235
T6 sequence (looked up): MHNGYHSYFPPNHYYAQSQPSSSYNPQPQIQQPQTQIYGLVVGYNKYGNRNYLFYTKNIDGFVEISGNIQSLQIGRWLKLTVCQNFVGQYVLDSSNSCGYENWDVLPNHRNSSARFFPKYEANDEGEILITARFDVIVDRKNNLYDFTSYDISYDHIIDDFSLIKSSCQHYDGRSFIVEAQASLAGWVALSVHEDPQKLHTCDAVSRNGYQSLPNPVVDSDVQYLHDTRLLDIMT
Briefly: ITC; isothermal titration calorimetry of MUT-8^NTD and MUT-16^584–724. The note with it: both partners purified.

B1: GST-tagged MUT-16^1–724 (domain or fragment, Caenorhabditis elegans, UniProt O62011 1-724, looked up)
chain: MSESDDDYPELDISDQYIDPLGIVVGPPPASYTETDREETPMQNRTEDDTNSYGNSSGEHDYDSYLDSGDDDFDVDAYYANDNMDEPPPETIPDNLIQNVIGRNDNADYDFSDASNPEIMKRDLQLFLSSSLLSNPLKFRSGYSSDELDDCLKSCMGYSLQVTAVLLLPPEIISQLPNDSKTEHAHALVRGGWLQSKEGAFFPVISDSERETVVSLMNGSEEQHKRQERKKKEADTFESEEKEIRTLLTFNMIAELLMAVRNEYSIRSVKYQILSTAYTNMVTGAAHANIFRKYKDILQLDPEKLWNNDWFKEYTNRGTLKKFLTTARFSEIVVSQANGKTVELYFRADDEGNRPVVLFTDEHIADVRNKWKTGNQRNQNYGSQGNYRAGGQRSDDRRGPQQRRNVIVPDPNYQPSTFAGGISNNADDDGSLQPTTSSHFNRNTDRSTSRPPRAPTSPVNRVMETDPLMGQGTSSGAPQRSAIPNPFGGAPALSRSTITNGNRGPSYGDRGERVQDVGDTTSDSEITSEGSYSDEDPEQKEIKRQRRKDKLKKKQERELRSREKHTKSKQQPPSKIETRFNTYKKKSESSATDTSNTPPVDTVNVALPTPVVESSSTTAAPSIPVSTRPEVVVPPENPAPLREVGNFYSKSNHDEDRRNVQLPFTPADTHKPIKVAPKEPVRNPLLKERPSANGFINRRLPSHPAPPPVNQSQPANQPMQTAVY
notes: numbers count on the longer isoform B0379.3a.1 (O62011); also called the longest MUT-16 construct; source: E. coli BL21(DE3) derivative, purified
With B1, the binding result in data set [1] was “binds”.

B2: 16-mer ssRNA (ssRNA)
RNA: GUUGAUUGAAGAGUUC
By Kd is commonly meant the equilibrium constant for the complex coming apart. B2: the dissociation constant Kd with EXD3 NTD-EXO(D399A) amounted to 11.2 µM; with EXD3 FL(D399A) it was 1.86 µM; with MUT-7 FL, 2.33 µM; with MUT-7 NTD-EXO, 18.7 µM.

B3: GST-tagged MUT-16^584–724 (domain or fragment, Caenorhabditis elegans, UniProt O62011 584-724, looked up)
chain: KKKSESSATDTSNTPPVDTVNVALPTPVVESSSTTAAPSIPVSTRPEVVVPPENPAPLREVGNFYSKSNHDEDRRNVQLPFTPADTHKPIKVAPKEPVRNPLLKERPSANGFINRRLPSHPAPPPVNQSQPANQPMQTAVY
notes: numbers count on the longer isoform B0379.3a.1 (O62011); source: E. coli BL21(DE3) derivative, purified
B3: the binding result in data set [1] was “binds”.

B4: MUT-16^584–724 (domain or fragment, Caenorhabditis elegans, UniProt O62011 584-724, looked up)
chain: B3 chain
notes: numbers count on the longer isoform B0379.3a.1 (O62011); an untagged form was purified for CD; source: E. coli BL21(DE3) derivative; co-expressed with MBP-tagged MUT-8 constructs, in lysate; co-expressed with MUT-8^NTD and purified as complex; purified
B4 came in with an equilibrium dissociation constant (Kd) in data set [2] of approximately 13 µM.
